Source: publication PMC10397247
Blank lines part the entries; values can stand above or below the binder they belong to.

Tests used:
Core_NNNN-es_KEEE = biological target: T1, Core_NNNN-es_KEEE; experiment: two-hybrid library CCmax; conditions: mean of both orientations;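 note: natural log of median RNA to DNA barcode read ratio; higher means stronger binding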
T1 chain: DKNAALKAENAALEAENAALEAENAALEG

P8SHb = biological target: T2, P8SHb; experiment: two-hybrid library CCNG1;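 note: natural log of median RNA to DNA barcode read ratio; higher means stronger binding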
T2 chain: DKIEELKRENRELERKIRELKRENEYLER

P1SHb = biological target: T3, P1SHb; experiment: two-hybrid library CCNG1;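 note: natural log of median RNA to DNA barcode read ratio; higher means stronger binding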
T3 chain: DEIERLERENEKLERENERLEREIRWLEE

P7SHb = biological target: T4, P7SHb; experiment: two-hybrid library CCNG1;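 note: natural log of median RNA to DNA barcode read ratio; higher means stronger binding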
T4 chain: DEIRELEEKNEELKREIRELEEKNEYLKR

P11SHb = biological target: T5, P11SHb; experiment: two-hybrid library CCNG1;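 note: natural log of median RNA to DNA barcode read ratio; higher means stronger binding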
T5 chain: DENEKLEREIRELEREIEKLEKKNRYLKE

P2SHb = biological target: T6, P2SHb; experiment: two-hybrid library CCNG1;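 note: natural log of median RNA to DNA barcode read ratio; higher means stronger binding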
T6 chain: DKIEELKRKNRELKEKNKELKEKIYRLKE

P9SHb = biological target: T7, P9SHb; experiment: two-hybrid library CCNG1
T7 chain: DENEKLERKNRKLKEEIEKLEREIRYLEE

P4SHb = biological target: T8, P4SHb; experiment: two-hybrid library CCNG1
T8 chain: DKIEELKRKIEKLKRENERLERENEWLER

P12SHb = biological target: T9, P12SHb; experiment: two-hybrid library CCNG1
T9 chain: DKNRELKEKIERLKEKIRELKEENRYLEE

P6SHb = biological target: T10, P6SHb; experiment: two-hybrid library CCNG1
T10 chain: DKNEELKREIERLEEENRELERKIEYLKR

P3SHb = biological target: T11, P3SHb; experiment: two-hybrid library CCNG1
T11 chain: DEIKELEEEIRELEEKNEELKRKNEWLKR

P2-AA-1HAA-Y = biological target: T12, P2-AA-1HAA-Y; experiment: two-hybrid library CCmax; conditions: mean of both orientations
T12 chain: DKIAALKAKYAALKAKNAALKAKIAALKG

P2-AA-1HAA-E = biological target: T13, P2-AA-1HAA-E; experiment: two-hybrid library CCmax; conditions: mean of both orientations
T13 chain: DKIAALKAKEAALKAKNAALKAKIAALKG

P2-AA-1HAA-T = biological target: T14, P2-AA-1HAA-T; experiment: two-hybrid library CCmax; conditions: mean of both orientations
T14 chain: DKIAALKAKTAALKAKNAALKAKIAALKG

P2-AA-1HAA-S = biological target: T15, P2-AA-1HAA-S; experiment: two-hybrid library CCmax; conditions: mean of both orientations
T15 chain: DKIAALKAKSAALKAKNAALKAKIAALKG

P2-AA-1HAA-I = biological target: T16, P2-AA-1HAA-I; experiment: two-hybrid library CCmax; conditions: mean of both orientations
T16 chain: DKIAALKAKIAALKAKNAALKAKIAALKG

P2-AA-1HAA-V = biological target: T17, P2-AA-1HAA-V; experiment: two-hybrid library CCmax; conditions: mean of both orientations
T17 chain: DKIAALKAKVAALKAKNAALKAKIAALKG

P2-AA-1HAA-R = biological target: T18, P2-AA-1HAA-R; experiment: two-hybrid library CCmax; conditions: mean of both orientations
T18 chain: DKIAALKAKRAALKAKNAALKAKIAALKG

P2-AA = biological target: T19, P2-AA; experiment: two-hybrid library CCmax; conditions: mean of both orientations
T19 chain: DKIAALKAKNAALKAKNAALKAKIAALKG

interaction score (Core_NNNN-es_KEEE): 1.14
Binder: DENAALEAKNAALKAKNAALKAKNAALKG [Core_NNNN-es_EKKK]

interaction score (P8SHb): -0.421 | interaction score (P1SHb): -0.267 | interaction score (P7SHb): 0.246 | interaction score (P11SHb): 0.241 | interaction score (P2SHb): 0.79 | interaction score (P9SHb): 0.702 | interaction score (P4SHb): 0.998 | interaction score (P12SHb): 1.61 | interaction score (P6SHb): 1.17 | interaction score (P3SHb): -0.138
Binder: DENEKLEREIRELEREIEKLEKKNRYLKE [P11SHb]

interaction score (P2-AA-1HAA-Y): 2.08 | interaction score (P2-AA-1HAA-E): 1.82 | interaction score (P2-AA-1HAA-T): 1.91 | interaction score (P2-AA-1HAA-S): 2.03 | interaction score (P2-AA-1HAA-I): 2.11 | interaction score (P2-AA-1HAA-V): 1.69 | interaction score (P2-AA-1HAA-R): 2.06 | interaction score (P2-AA): 2.21
Binder: DEIAALEAEIAALEAENAALEAEIAALEG [P1-AA-1HAA-I]
